Reference: US20060110789A1, “Methods to mediate polyketide synthase module effectiveness” (priority 2002, published 2006)
Where “and” joins values, the source holds several entries; their conditions need not be identical. Equal entries are not always repeated.

Legend:
[1] = biological target: M3+TE or (5)M3+TE (DEBS module 3 fused to thioesterase); settings: with M3+TE, cited from earlier work
[2] = tested on: diketide thioester; test: Kinetic constants kcat and KM of single module constructs converting diketide to triketide; type: biochemical
Method: (§1) A cell-free system, tested for the ability to convert the cysteamine thioester of 2S,3R-2-methyl-3-hydroxypentanoic acid (compound 2 in FIG. 2), consisted of 0.5-10 mM concentration of the thioester, 2.5 mM ^14C-labeled methylmalonyl CoA and 100 pmoles of purified protein prepared in Example 1 in a 100 μl reaction. In some cases, 1 mM of NADPH was added; this was done in assay mixtures containing (M2+TE), (M5+TE) and (M6+TE) proteins. The protein was, in each case, a single module of the DEBS PKS fused to the thioesterase (TE) termination region of module 6.
The various constructs which are successful in converting diketide to triketide were then evaluated for the kinetic constants kcat and KM. […] This is evidently due to the absence of beta-carbonyl modifying enzymes in module 3 as verified by the fact that removal of NADPH, (which is required for the activity of such modules) from the reaction mixture of (N-ERL-M6+TE) also results in a lowering of the kcat.

[3] = tested on: cysteamine thioester of 2S,3R-2-methyl-3-hydroxypentanoic acid (diketide); test: Cell-free synthesis of triketides from diketide thioester by single module constructs; type: biochemical; settings: 0.5-10 mM diketide thioester, 2.5 mM 14C-methylmalonyl CoA, 100 pmoles protein, 30 minutes, TLC
Method: as §1
The reaction mixtures were quenched and extracted by ethyl acetate and separated by thin-layer chromatography (TLC) to discern the formation of the triketide ketolactone 3 and triketide lactone 4 (both shown in FIG. 2) after 30 minutes.
The constructs for (M2+TE) and (M6+TE) were modified by deleting the sequences encoding the amino acids upstream of the KS catalytic domain and substituting the first 39 amino acids from (M5+TE) containing the N-terminal portion of the interpolypeptide linker (N-ERL). The relevant constructs were prepared by replacing the BsaBI-EcoRI fragment in pRSG46 by the corresponding fragment from pCK4 to obtain N-ERL-M2+TE), in plasmid pRSG64, or from pJRJ10 to obtain (N-ERL-M6+TE) in plasmid pRSG54. These constructs yield modules which contain the upstream 39 amino acids from module 5.

[4] = biological target: T1, M2 and M3+TE (Saccharopolyspora erythraea, UniProt Q03131); test: Inhibition of tetraketide production by synthetic peptide, M2-M3 linker pair; type: biochemical; settings: M2 and M3+TE both 1.0 μM, peptide 1 to 100 μM
T1 construct: Plasmid pBP19 contains module 2 of DEBS (M2) and is a derivative of pRSG64; made in house; host or cells: E. coli BL21(DE3) with B. subtilis sfp; pET-21c
Method: (§2) Inhibition of Tetraketide Production. The ability of the synthetic peptide to inhibit the transfer reaction, and thus the production of tetraketide, was tested under the same reaction conditions described for the two module coincubations. The concentrations of M2 and M3+TE were both 1.0 μM, and the concentrations of M2(4) and (5)M3+TE were 0.5 and 1.0 μM, respectively. The only difference was the addition of the peptide at concentrations ranging from 1 to 100 μM to the assay containing M2 and M3+TE [or alternatively M2(4) and (5)M3+TE]. For greater accuracy, each inhibition assay was performed side by side with a control lacking inhibitor. The effect of the inhibitor was thus determined by dividing the inhibited rate by the control rate.

[5] = biological target: T2, M2(4) and (5)M3+TE (Saccharopolyspora erythraea, UniProt Q03131+Q03133, A1559G/A1612M/A1613S/A1621R/A1638S/A1707S/A1714P/A1717D/A1741R/A1766S/A1884G/A1933P/A1935T/A1951R/A1969R/A1973H/A1979Q/A2007V/A2008V/A2011V/A2018D/A2064V/A2138S/D1597P/D1620G/DEL1744-1744/DEL1923-1924/DEL1955-1967/E1628D/E1873D/E1883D/E1925V/E1947G/E1993A/E2004D/F1591L/G1618A/G1705A/G1739A/G1878E/G1927Q/G1930R/G1977A/G1990A/G1997H/G2038E/G2099R/H1599E/H1992T/I1756V/INS1626G/INS1975[…]/K1779R/K2139R/L1590A/L1610V/L1858V/L1941V/L1981F/L1987V/L1995A/L2136R/L2141V/L2144V/N1593S/N1855E/N1936G/P1725G/P1740R/P1870G/P1887E/P1889S/P1982E/Q1619T/Q1732V/Q1746R/Q1994E/Q1998R/Q2070P/R1983E/R1996V/S1600T/S1627V/S1636T/S1637A/S1670T/S1886R/S1937V/S1972D/S2041P/S2089A/S2104V/T1762S/T1948A/T1968G/T1976R/T2012V/T2015S/V1583A/V1601L/V1622P/V1623R/V1640A/V1644I/V1655L/V1708P/V1728S/V1730F/V1851L/V1879I/V1929R/V1931M/V2006A/V2021S/V2103A/V2124A/V2131M/Y1614H); test: Inhibition of tetraketide production by synthetic peptide, M4-M5 linker pair; type: biochemical; settings: M2(4) 0.5 μM and (5)M3+TE 1.0 μM, peptide concentrations up to 100 μM
T2 construct: Plasmid pST179 encodes a derivative of M2 containing the C-terminal linker of DEBS module 4 (M4); made in house; host or cells: E. coli BL21(DE3) with B. subtilis sfp; pET-21c
Method: as §2

[6] = tested on: individually assayed modules, including M3+TE; test: Effect of synthetic peptide on individually assayed modules; type: biochemical
Method: In Vitro Polyketide Production Assays of individual modules contained 1.0 μM protein, 1-10 mM N-acetylcysteamine thioester of the “natural” (2S,3R)-2-methyl-3-hydroxypentanoic acid diketide (NDK) (1), 4 mM NADPH, 440 mM sodium phosphate, 1 mM EDTA, 2.5 mM dithiothreitol (DTT), and 20% w/v glycerol, pH 7.2, in 80 μL. Reactions with M2 or M2(4) included 0.3 mM ^14C-methylmalonyl-CoA (specific activity adjusted to 10.4 mCi/mmol), and those with M3+TE or (5)M3+TE included 0.5 mM ^14C-methylmalonyl-CoA (specific activity reduced to 1.1 mCi/mmol). [M2(4) refers to a derivative of M2 in which the C-terminal linker has been replaced with its counterpart from module 4, whereas (5)M3 refers to a derivative of M3 in which the N-terminal linker has been replaced with its counterpart from module 5 (see FIG. 4).] Both concentrations of methylmalonyl-CoA were saturating, but different concentrations were needed due to the disparate rates of turnover between the modules with and without the thioesterase. The reaction mixtures were preincubated to 30° C. and started with the addition of the methylmalonyl-CoA. […] Product formation was quantified by comparison with standards of the labeled methylmalonyl-CoA. […]
Inhibition of Tetraketide Production. […] The effect of the inhibitor was thus determined by dividing the inhibited rate by the control rate.

[7] = tested on: M3+TE or (5)M3+TE (DEBS module 3 fused to thioesterase); test: Coincubation of donor module 2 proteins with module 3+TE: tetraketide lactone 2 formation and KD; type: biochemical; settings: acceptor (5)M3+TE, matched M4-M5 linker pair, saturation curve
Method: Assays of M2 and M3+TE contained 10 μM M2 and […] M3+TE, 7 mM NDK, 0.5 mM ^14C-methylmalonyl-CoA (specific activity reduced to 3.4 mCi/mmol), 4 mM NADPH, 440 mM sodium phosphate, 1 mM EDTA, 2.5 mM DTT, and 20% w/v glycerol, pH 7.2, in 70 μL. Assays of M2(4) and (5)M3+TE were identical, except they contained 0.5 μM M2(4), 0.5-5 μM (5)M3+TE, and 0.4 mM ^14C-methylmalonyl-CoA (specific activity reduced to 6.2 mCi/mmol). The concentration of M2(4) was limiting in order to facilitate its saturation with (5)M3+TE. The reactions were prewarmed at 30° C. and initiated by the addition of the methylmalonyl-CoA. As described above, 20 μL aliquots were removed at various time points and processed. […]
For tetraketide formation, the rate of production of tetaketide was recorded for varying concentrations of M3+TE [or (5)M3+TE] at a fixed concentration of M2 [or M2(4)] and saturating concentrations of substrates. By fitting the rate dependence of tetraketide to a saturation curve, the maximal velocity (vmax) of tetraketide production was determined, and was assumed to represent the case where every M2 homodimer was productively associated with an M3+TE homodimer. Thus, the affinity of this protein-protein interaction could be calculated from the rate v=kcat[M2−M3] […]

[8] = tested on: N-acetylcysteamine thioester of (2S,3R)-2-methyl-3-hydroxypentanoic acid diketide (NDK); test: In vitro polyketide production assays of individual modules with NDK (kinetic analysis); type: biochemical; settings: NDK 1-10 mM, 1.0 μM protein, 30° C; M2 and M2(4) only approximate (triketide lactone 3)
Method: In Vitro Polyketide Production Assays of individual modules contained 1.0 μM protein, 1-10 mM N-acetylcysteamine thioester of the “natural” (2S,3R)-2-methyl-3-hydroxypentanoic acid diketide (NDK) (1), 4 mM NADPH, 440 mM sodium phosphate, 1 mM EDTA, 2.5 mM dithiothreitol (DTT), and 20% w/v glycerol, pH 7.2, in 80 μL. Reactions with M2 or M2(4) included 0.3 mM ^14C-methylmalonyl-CoA (specific activity adjusted to 10.4 mCi/mmol), and those with M3+TE or (5)M3+TE included 0.5 mM ^14C-methylmalonyl-CoA (specific activity reduced to 1.1 mCi/mmol). [M2(4) refers to a derivative of M2 in which the C-terminal linker has been replaced with its counterpart from module 4, whereas (5)M3 refers to a derivative of M3 in which the N-terminal linker has been replaced with its counterpart from module 5 (see FIG. 4).] […] Product formation was quantified by comparison with standards of the labeled methylmalonyl-CoA. […]
Kinetic Analysis. For individual modules, the steady-state turnover number was determined from the time course of triketide formation, normalized to the concentration of protein. The dependence of the rate on substrate concentration was measured by varying the concentration of NDK while maintaining saturating levels of NADPH and methylmalonyl-CoA.

[9] = diketide to triketide, cell-free
[10] = listed as N-terminal linker of module 3
[11] = listed as synthetic peptide mimic of the N-terminal linker of M3

DEBS1: first protein of 6-deoxyerythronolide B synthase: loading module and extender modules 1 and 2
Kd ([1]; Gokhale et al. 1999, read-out: KD (previously reported value)): 2600 nM
rate of formation of the same tetraketide (earlier measurement) ([1]; Pieper et al. 1997): 0.23 min⁻¹

ERL−M2+TE: module 2+TE with the first 39 amino acids from (M5+TE), N-terminal interpolypeptide linker (pRSG64)
Km [2, 9]: 4.6 ± 0.4 mM
kcat × 100 [2, 9]: 8 ± 0.6 min^−1
Triketide Formed [3]: Yes

ERL−M6+TE: module 6+TE with the first 39 amino acids from (M5+TE), N-terminal interpolypeptide linker (pRSG54)
Km [2, 9]: 4.3 ± 0.4 mM
kcat × 100 [2, 9]: 9.5 ± 0.6 min^−1
Km ([2]; −NADPH): 4.1 ± 0.4 mM
kcat × 100 ([2]; −NADPH): 4.5 ± 0.7 min^−1
Triketide Formed [3]: Yes

H2N-MTDSEKVAEYLRRATLDLRAARQRIRELESD-amide (H-MTDSEKVAEYLRRATLDLRAARQRIRELESD-NH2) [M3 N-term]
inhibition of tetraketide production [4, 10]: inhibit the formation of 2 in the presence of M2 and M3+TE in a concentration-dependent manner
inhibition of tetraketide production [4, 11]: lowered the overall rate of tetraketide production in a dose-dependent fashion
inhibition of tetraketide production [5, 10]: No inhibitory effect
inhibition of tetraketide production [5, 11]: no such effect
inhibitory effect upon individually assayed modules [6]: no inhibitory effect

M2(4): derivative of M2 containing the C-terminal linker of DEBS module 4 (pST179)
kcat of tetraketide lactone 2 synthesis [7]: 0.0123 ± 0.001 s⁻¹ and 0.0123 s⁻¹
kcat [8]: ~0.0005 s⁻¹

M5+TE: DEBS module 5 with its natural N-terminal linker fused to thioesterase (pRSG46)
Km [2, 9]: 4.7 ± 0.4 mM
kcat × 100 [2, 9]: 7.5 ± 0.7 min^−1
Triketide Formed [3]: Yes
